From the Human Domainome abundance scans (Beltran et al. 2025)
± gives the uncertainty stated by the source.

B1: Segment polarity protein dishevelled homolog DVL-3, residues 2 to 81; numbered along this chain, Q92997 (parent)
chain: GETKIIYHLDGQETPYLVKLPLPAERVTLADFKGVLQRPSYKFFFKSMDDDFGVVKEEISDDNAKLPCFNGRVVSWLVSA

Variants of: B1
Assay: abundance fitness (aPCA) (normalised: wild type 0, dead -1); higher = more abundant; growth selection in yeast, the domain comes from the species named
Details: Homo sapiens
Variant A80S has an abundance fitness of 0.088 ± 0.067.
In the case of A80R, the abundance fitness is reported as -0.164 ± 0.14.
For A80Y, the abundance fitness was -0.405 ± 0.19.
Work on A80T yielded an abundance fitness of 0.185 ± 0.089.
For A80V, the abundance fitness was -0.105 ± 0.11.
